Data on 18 molecules can be found in patent US20160130347A1 (Hoffmann-La Roche, published 2016).

Residue numbers refer to the chain shown, from its start.

B1: hu Fab (MCSP)-Crossfab (CD3) (bispecific antibody)
chain 1: EVQLQESGPGLVKPSQSLSLTCSVTGYSITSGYYWNWIRQFPGNKLEWMGYITYDGSNNYNPSLKNRISITRDTSKNQFFLKLNSVTTEDTATYYCADFDYWGQGTTLTVSSASTKGPSVFPLAPSSKSTSGGTAALGCLVKDYFPEPVTVSWNSGALTSGVHTFPAVLQSSGLYSLSSVVTVPSSSLGTQTYICNVNHKPSNTKVDKKVEPKSCDGGGGSGGGGSDIQMTQSPSSLSASVGDRVTITCRASQDIRNYLNWYQQKPGKAPKLLIYYTSRLESGVPSRFSGSGSGTDYTLTISSLQPEDFATYYCQQGNTLPWTFGQGTKVEIKSSASTKGPSVFPLAPSSKSTSGGTAALGCLVKDYFPEPVTVSWNSGALTSGVHTFPAVLQSSGLYSLSSVVTVPSSSLGTQTYICNVNHKPSNTKVDKKVEPKSC
light: DIVLTQSPSSLSASLGDRVTISCSASQGIRNYLNWYQQRPDGTVKLLIYYTSSLHSGVPSRFSGSGSGTDYSLTISNLEPEDIATYYCQQYSKLPWTFGGGTKLEIKRTVAAPSVFIFPPSDEQLKSGTASVVCLLNNFYPREAKVQWKVDNALQSGNSQESVTEQDSKDSTYSLSSTLTLSKADYEKHKVYACEVTHQGLSSPVTKSFNRGEC
chain 2: EVQLVESGGGLVQPGGSLRLSCAASGYSFTGYTMNWVRQAPGKGLEWVALINPYKGVSTYNQKFKDRFTISVDKSKNTAYLQMNSLRAEDTAVYYCARSGYYGDSDWYFDVWGQGTLVTVSSASVAAPSVFIFPPSDEQLKSGTASVVCLLNNFYPREAKVQWKVDNALQSGNSQESVTEQDSKDSTYSLSSTLTLSKADYEKHKVYACEVTHQGLSSPVTKSFNRGEC
B2: hu Fab (MCSP)=Crossfab (CD3) (bispecific antibody)
chain 1: B1 chain 1
chain 2: EVQLVESGGGLVQPGGSLRLSCAASGYSFTGYTMNWVRQAPGKGLEWVALINPYKGVSTYNQKFKDRFTISVDKSKNTAYLQMNSLRAEDTAVYYCARSGYYGDSDWYFDVWGQGTLVTVSSASVAAPSVFIFPPSDEQLKSGTASVVCLLNNFYPREAKVQWKVDNALQSGNSQESVTEQDSKDSTYSLSSTLTLSKADYEKHKVYACEVTHQGLSSPVTKSFNRGECDGGGGSGGGGSDIVLTQSPSSLSASLGDRVTISCSASQGIRNYLNWYQQRPDGTVKLLIYYTSSLHSGVPSRFSGSGSGTDYSLTISNLEPEDIATYYCQQYSKLPWTFGGGTKLEIKRTVAAPSVFIFPPSDEQLKSGTASVVCLLNNFYPREAKVQWKVDNALQSGNSQESVTEQDSKDSTYSLSSTLTLSKADYEKHKVYACEVTHQGLSSPVTKSFNRGEC
B3: M4-3(A7)/ML2 IgG (antibody, V domains shown)
VH: QVQLQESGPGLVKPSQTLSLTCTVSGGSITDGYYWNWIRQHPGKGLEWIGYITFDGRNNYNPSLKSRVTISRDTSKNQFSLKLSSVTAADTAVYYCADFDYWGQGTLVTVSS
VL: DIQMTQSPSSLSASVGDRVTITCRASQGIRNYLNWYQQKPGKAPKLLIYYTSSLHSGVPSRFSGSGSGTDFTLTISSLQPEDFATYYCQQYSKLPWTFGQGTKVEIK
notes: Human IgG1 format
B4: M4-3(C1)/ML2(G3) IgG (antibody, V domains shown)
VH: B3 VH with D31S, R57S
VL: DIQMTQSPSSLSASVGDRVTITCRASQGIRNYLNWYQQKPGKAPKLLIYYTSSLHSGVPSRFSGSGSGTDYTLTISSLQPEDFATYYCQQYSALPWTFGQGTKVEIKR
notes: Human IgG1; also called MCSP M4-3(C1)ML2(G3)
B5: M4-3(A7)/ML2(G3) IgG (antibody, V domains shown)
VH: B3 VH
VL: B3 VL with F71Y, K93A
notes: Human IgG1 format
B6: M4-3(C1)/ML2(E10) IgG (antibody, V domains shown)
VH: B3 VH with D31S, R57S
VL: B3 VL with Q27Y, N31G, Y87H
notes: Human IgG1 format
B7: M4-3(C1)/ML2(C5) IgG (antibody, V domains shown)
VH: B3 VH with D31S, R57S
VL: B3 VL with Q27R, N31E, S52G, K93E
notes: Human IgG1 format
B8: M4-3/ML2(G3) IgG (antibody, V domains shown)
VH: B3 VH with D31S, F54Y, R57S
VL: B3 VL with F71Y, K93A
notes: Human IgG1 format
B9: M4-3(B8)/ML2 IgG (antibody, V domains shown)
VH: B3 VH with D31S
VL: B3 VL
notes: Human IgG1 format
B10: M4-3(B7)/ML2 IgG (antibody, V domains shown)
VH: B3 VH with D31S, R57I
VL: B3 VL
notes: Human IgG1 format
B11: M4-3(A7)/ML2(E10) IgG (antibody, V domains shown)
VH: B3 VH
VL: B3 VL with Q27Y, N31G, Y87H
notes: Human IgG1 format
B12: M4-3/ML2 (E10/G3) IgG (antibody, V domains shown)
VH: B3 VH with D31S, F54Y, R57S
VL: B3 VL with Q27Y, N31G, Y87H, K93A
notes: Human IgG1 format; also called MCSP ML2(E10-G3)
B13: M4-3(C1)/ML2 IgG (antibody, V domains shown)
VH: B3 VH with D31S, R57S
VL: B3 VL
notes: Human IgG1 format
B14: M4-3(D6)/ML2 IgG (antibody, V domains shown)
VH: B3 VH with D31S, R57K
VL: B3 VL
notes: Human IgG1 format
B15: M4-3(A7)/ML2(C5) IgG (antibody, V domains shown)
VH: B3 VH
VL: B3 VL with Q27R, N31E, S52G, K93E
notes: Human IgG1 format
B16: M4-3/ML2 (E10) IgG (antibody, V domains shown)
VH: B3 VH with D31S, F54Y, R57S
VL: B3 VL with Q27Y, N31G, Y87H
notes: Human IgG1 format
B17: M4-3/ML2 (C5/G3) IgG (antibody, V domains shown)
VH: B3 VH with D31S, F54Y, R57S
VL: B3 VL with Q27R, N31E, S52G, K93A
notes: Human IgG1 format; also called MCSP ML2(C5-G3)
B18: M4-3/ML2 (C5) IgG (antibody, V domains shown)
VH: B3 VH with D31S, F54Y, R57S
VL: B3 VL with Q27R, N31E, S52G, K93E
notes: Human IgG1 format

In one assay the target is human CD3 on T cells (human, UniProt P07766 23-126). The assay can be described thus: cell-based or functional assay.
Sequence of human CD3 on T cells (P07766 23-126 limits assumed): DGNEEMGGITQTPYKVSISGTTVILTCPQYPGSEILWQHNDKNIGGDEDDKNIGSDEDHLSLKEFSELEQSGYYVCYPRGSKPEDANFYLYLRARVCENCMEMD
For the molecule B1, the “EC50 of killing (LDH release) of MV-3 cells, human PBMCs, E:T 10:1, ~24 h” value turned out to be 25.4 pM.
Same read-out and setting: then B2, with 89.8 pM.

Another assay deals with human MCSP on tumor cells (human, UniProt Q6UVK1 30-2322). The assay can be described thus: cell-based or functional assay.
Sequence of human MCSP on tumor cells (Q6UVK1 30-2322): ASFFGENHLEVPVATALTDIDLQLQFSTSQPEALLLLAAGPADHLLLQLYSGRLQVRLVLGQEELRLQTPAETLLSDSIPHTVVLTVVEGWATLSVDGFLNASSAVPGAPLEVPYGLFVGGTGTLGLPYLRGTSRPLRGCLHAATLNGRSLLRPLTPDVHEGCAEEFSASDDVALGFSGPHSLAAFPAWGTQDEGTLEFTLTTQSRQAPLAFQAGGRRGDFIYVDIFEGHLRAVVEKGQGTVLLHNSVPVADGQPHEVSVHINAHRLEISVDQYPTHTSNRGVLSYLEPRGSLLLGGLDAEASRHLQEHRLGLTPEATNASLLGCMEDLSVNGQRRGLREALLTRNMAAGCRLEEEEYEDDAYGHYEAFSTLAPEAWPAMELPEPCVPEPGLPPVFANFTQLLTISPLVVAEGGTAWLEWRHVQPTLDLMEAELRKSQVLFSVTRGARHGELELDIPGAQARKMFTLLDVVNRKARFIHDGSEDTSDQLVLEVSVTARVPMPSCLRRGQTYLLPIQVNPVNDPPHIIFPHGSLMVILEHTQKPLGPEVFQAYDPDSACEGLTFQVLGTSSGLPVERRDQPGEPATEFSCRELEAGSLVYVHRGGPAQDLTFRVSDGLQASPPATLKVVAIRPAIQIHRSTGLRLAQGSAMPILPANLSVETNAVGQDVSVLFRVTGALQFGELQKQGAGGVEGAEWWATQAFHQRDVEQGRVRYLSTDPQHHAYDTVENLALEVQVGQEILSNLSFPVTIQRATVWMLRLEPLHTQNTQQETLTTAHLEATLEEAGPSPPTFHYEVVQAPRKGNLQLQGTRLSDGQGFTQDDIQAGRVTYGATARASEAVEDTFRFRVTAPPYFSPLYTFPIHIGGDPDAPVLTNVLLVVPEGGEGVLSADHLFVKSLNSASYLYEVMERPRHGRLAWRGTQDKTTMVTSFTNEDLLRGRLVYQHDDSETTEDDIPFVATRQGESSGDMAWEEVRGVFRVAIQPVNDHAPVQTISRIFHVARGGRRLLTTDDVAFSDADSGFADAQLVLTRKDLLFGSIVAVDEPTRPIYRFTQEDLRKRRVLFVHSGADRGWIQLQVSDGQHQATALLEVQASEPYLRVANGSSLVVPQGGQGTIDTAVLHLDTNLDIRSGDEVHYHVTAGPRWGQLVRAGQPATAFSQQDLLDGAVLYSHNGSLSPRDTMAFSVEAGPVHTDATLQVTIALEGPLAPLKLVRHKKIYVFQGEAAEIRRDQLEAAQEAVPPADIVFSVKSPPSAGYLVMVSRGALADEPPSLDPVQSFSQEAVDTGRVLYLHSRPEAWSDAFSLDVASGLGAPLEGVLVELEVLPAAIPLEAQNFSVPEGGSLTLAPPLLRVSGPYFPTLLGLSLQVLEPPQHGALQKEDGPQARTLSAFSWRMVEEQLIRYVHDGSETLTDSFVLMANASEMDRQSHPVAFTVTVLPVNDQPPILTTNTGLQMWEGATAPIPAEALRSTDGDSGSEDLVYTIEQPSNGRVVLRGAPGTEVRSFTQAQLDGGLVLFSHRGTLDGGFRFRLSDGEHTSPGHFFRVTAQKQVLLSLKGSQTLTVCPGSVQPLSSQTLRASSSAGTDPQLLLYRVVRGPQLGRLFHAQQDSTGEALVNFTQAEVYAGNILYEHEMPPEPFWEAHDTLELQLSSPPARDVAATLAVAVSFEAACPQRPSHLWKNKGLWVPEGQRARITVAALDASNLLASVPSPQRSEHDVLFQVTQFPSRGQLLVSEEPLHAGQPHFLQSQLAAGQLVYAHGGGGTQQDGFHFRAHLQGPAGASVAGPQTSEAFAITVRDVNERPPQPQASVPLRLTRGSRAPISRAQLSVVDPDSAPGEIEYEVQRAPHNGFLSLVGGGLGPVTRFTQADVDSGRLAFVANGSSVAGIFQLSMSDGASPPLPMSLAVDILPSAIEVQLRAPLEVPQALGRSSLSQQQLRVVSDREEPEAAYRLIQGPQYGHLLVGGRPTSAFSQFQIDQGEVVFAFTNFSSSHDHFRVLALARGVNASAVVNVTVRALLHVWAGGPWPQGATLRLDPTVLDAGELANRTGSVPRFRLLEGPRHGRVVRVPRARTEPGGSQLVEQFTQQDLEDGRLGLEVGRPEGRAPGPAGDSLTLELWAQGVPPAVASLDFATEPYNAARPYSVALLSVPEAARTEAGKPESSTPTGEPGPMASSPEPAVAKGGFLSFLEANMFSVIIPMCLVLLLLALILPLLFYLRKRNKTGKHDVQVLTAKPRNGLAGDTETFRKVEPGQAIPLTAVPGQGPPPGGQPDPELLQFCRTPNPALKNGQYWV
Take B1: the “EC50 of killing (LDH release) of MV-3 cells, human PBMCs, E:T 10:1, ~24 h” value worked out at 25.4 pM.
Same read-out and setting: the result for B2 reads 89.8 pM.

The target of another assay is T1, human MCSP(D3 domain)-avi-his (human, UniProt Q6UVK1 1587-2221, limits assumed).
T1 construct: domain: D3 domain; also called hu-MCSP(D3 domain)-avi-his
T1 sequence (looked up): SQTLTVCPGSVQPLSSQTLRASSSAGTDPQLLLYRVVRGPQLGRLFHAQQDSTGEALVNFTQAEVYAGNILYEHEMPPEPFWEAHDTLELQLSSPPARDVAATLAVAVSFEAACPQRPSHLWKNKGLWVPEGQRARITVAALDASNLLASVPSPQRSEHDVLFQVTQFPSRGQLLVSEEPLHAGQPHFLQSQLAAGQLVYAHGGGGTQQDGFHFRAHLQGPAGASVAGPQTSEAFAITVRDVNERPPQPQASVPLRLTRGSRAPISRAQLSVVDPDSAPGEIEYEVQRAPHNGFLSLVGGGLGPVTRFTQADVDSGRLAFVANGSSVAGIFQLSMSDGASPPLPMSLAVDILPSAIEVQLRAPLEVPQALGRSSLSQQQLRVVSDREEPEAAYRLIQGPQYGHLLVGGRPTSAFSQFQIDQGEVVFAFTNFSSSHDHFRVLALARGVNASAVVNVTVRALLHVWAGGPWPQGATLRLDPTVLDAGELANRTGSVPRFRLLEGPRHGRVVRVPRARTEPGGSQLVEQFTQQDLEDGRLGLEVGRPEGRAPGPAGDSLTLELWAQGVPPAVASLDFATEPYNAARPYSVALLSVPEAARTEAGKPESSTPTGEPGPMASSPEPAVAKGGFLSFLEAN
Put plainly: ratio of ProteOn IgG KD against parental M4-3/ML2 IgG. The method, then: (§1) Briefly, carboxymethylated dextran biosensor chips (CM5, GE Healthcare) were activated with N-ethyl-N′-(3-dimethylaminopropyl)-carbodiimide hydrochloride (EDC) and N-hydroxysuccinimide (NHS) according to the supplier's instructions. Anti-human F(ab′)2 fragment specific capture antibody was diluted with 10 mM sodium acetate, pH 5.0 at 50 μg/ml before injection at a flow rate of 10 μl/minute to achieve approximately up to 10.000 response units (RU) of coupled capture antibody. Following the injection of the capture antibody, 1 M ethanolamine is injected to block unreacted groups. For kinetics measurements, Fabs from bacterial supernatant or purified Fabs were injected at a flow rate of 10 ul/minute for 300 s and a dissociation of 300 s for capture baseline stabilization. Capture levels were in the range of 100-500 RU. […] The surface of the sensorchip was regenerated by injection of glycine pH 1.5 for 30 s at 90 ul/min followed by injection of NaOH for 20 s at the same flow rate. Association rates (kon) and dissociation rates (koff) were calculated using a simple one-to-one Langmuir binding model (ProteOn XPR36 Evaluation Software or Scrubber software (BioLogic)) by simultaneously fitting the association and dissociation sensorgrams. The equilibrium dissociation constant (KD) was calculated as the ratio koff/kon.
(§2) Method exactly as described for the Fab fragments, just purified IgG from mammalian production were used.
As to B3, the “fold increase over parent (IgG KD, comparative binding affinity)” value (“fold increase over parent” for short) came out at 2.5 fold.
On the same count and under the same terms, then B4, with 28.6 fold; and B5, with 28.6 fold.
Still for that read-out and setting: the result for B6 reads 4 fold.
Same read-out and setting: the result for B7 reads 10 fold; that for B8, 6.7 fold; that for B9, 2.2 fold.
On to B10, for which the “fold increase over parent” value was determined as 4 fold.
Still for that read-out and setting: then B11, with 6.7 fold; and B12, with 5 fold.
The same measure, in the same setting: the result for B13 reads 2.2 fold.
On the same count and under the same terms, then B14, with 5 fold.
In the case of B15, the “fold increase over parent” value worked out at 28.6 fold.
On the same count and under the same terms, then B16, with 2 fold; and B17, with 2.9 fold; and B18, with 5 fold.

The target in another assay is T2, cynomolgus MCSP D3 (cynomolgus).
T2 construct: domain: D3; also called Cyno MCSP; cynomolgus homologue
Described as above. The method, then:
as §1, §2
Consider B3, for which the “fold increase over parent” value was 2 fold.
Turning to B4, the “fold increase over parent” value is 10 fold.
As for B5, the “fold increase over parent” value stood at 10 fold.
The same measure, in the same setting: the result for B6 reads 3.3 fold.
As to B7, the “fold increase over parent” value was determined as 6.7 fold.
For the molecule B8, the “fold increase over parent” value amounted to 3.3 fold.
Still for that read-out and setting: the result for B9 reads 2 fold; that for B10, 2.9 fold; that for B11, 2.9 fold.
Still for that read-out and setting: then B12, with 2.2 fold.
The same measure, in the same setting: the result for B13 reads 2.5 fold; that for B14, 2 fold.
Take B15: the “fold increase over parent” value was determined as 10 fold.
Same read-out and setting: then B16, with 1 fold.
The same measure, in the same setting: then B17, with 2 fold; and B18, with 2 fold.
